# Measurements published in PMC314469, “Protein Interaction Networks by Proteome Peptide Scanning” (PLoS Biology, 2004).
# T1: Boi1 SH3 (BOI1_YEAST), P38041
# T1 chain: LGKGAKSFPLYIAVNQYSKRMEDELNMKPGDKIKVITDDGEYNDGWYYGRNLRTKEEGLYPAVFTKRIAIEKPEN
# T2: Boi2 SH3 (BOI2_YEAST), P39969
# T2 chain: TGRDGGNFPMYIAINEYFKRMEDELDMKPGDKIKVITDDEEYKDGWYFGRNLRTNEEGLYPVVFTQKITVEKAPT
# T3: Myo5 SH3 (MYO5_YEAST), Q04439
# T3 chain: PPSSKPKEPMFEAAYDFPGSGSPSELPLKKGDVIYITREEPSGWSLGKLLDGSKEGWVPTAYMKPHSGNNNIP
# T4: Rvs167 SH3 (RV167_YEAST), P39743
# T4 chain: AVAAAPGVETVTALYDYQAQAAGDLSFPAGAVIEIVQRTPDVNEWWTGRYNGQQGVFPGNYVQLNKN
# T5: Yfr024 SH3 (LSB3_YEAST), P43603
# T5 chain: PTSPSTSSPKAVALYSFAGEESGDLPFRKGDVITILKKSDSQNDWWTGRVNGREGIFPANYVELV
# T6: Yhr016c SH3 (YSC84_YEAST), P32793
# T6 chain: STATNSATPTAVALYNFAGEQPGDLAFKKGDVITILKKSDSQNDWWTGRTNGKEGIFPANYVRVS
# B1: YLR260W 30-43 (peptide)
# chain: GIMIKAKPSSPYTY
# B2: YDL051W 238-251 (peptide)
# chain: GHKKKNLPKFPKNK
# B3: YBR214W 193-206 (peptide)
# chain: GEMVKLTPKNPFYK
# B4: YPL277C 154-167 (peptide)
# chain: GDHPKGPPPPPPPP
# B5: YDR333C 253-266 (peptide)
# chain: GKDHRLAPNGPGMH
# B6: YCR102C 154-167 (peptide)
# chain: GLNLKWEPSTPQRN
# B7: YMR309C 639-652 (peptide)
# chain: GIKVKRIPYSPKSI
# B8: YLR092W 403-416 (peptide)
# chain: GLMSKLGPNLPASI
# B9: YNL094W 196-209 (peptide)
# chain: GFLSKKVPNTPVVV
# B10: YJR122W 473-486 (peptide)
# chain: GENIKITPQKPFWF
# B11: YOL072W 279-292 (peptide)
# chain: GKMVKWGPLRPFLS
# B12: YLR460C 162-175 (peptide)
# chain: GLDLKWEPSTPQRK
# B13: YOR116C 826-839 (peptide)
# chain: GFQDRSLPHFPKNS
# Target: T1, Boi1 SH3 (BOI1_YEAST), P38041
# Assay: SPOT array
row,"normalised SPOT signal, Boehringer light units (BLU); mean over the file's lines of this peptide",Binder
1,69.6,B1
2,517,B2
3,152,B3
4,70,B4
5,2160,B5
6,447,B6
7,136,B7
8,118,B8
9,426,B9
10,82.4,B10
11,64.2,B11
12,2030,B12
13,88.7,B13

# Target: T2, Boi2 SH3 (BOI2_YEAST), P39969
# Assay: SPOT array
row,"normalised SPOT signal, Boehringer light units (BLU); mean over the file's lines of this peptide",Binder
1,53.5,B1
2,23.1,B2
3,23.6,B3
4,0.3,B4
5,4.7,B5
6,4.6,B6
7,1.5,B7
8,40,B8
9,5.3,B9
10,35.5,B10
11,153,B11
12,6.1,B12
13,18.7,B13

# Target: T3, Myo5 SH3 (MYO5_YEAST), Q04439
# Assay: SPOT array
row,"normalised SPOT signal, Boehringer light units (BLU); mean over the file's lines of this peptide",Binder
1,236,B1
2,789,B2
3,408,B3
4,20200,B4
5,218,B5
6,105,B6
7,391,B7
8,287,B8
9,71.3,B9
10,115,B10
11,645,B11
12,164,B12
13,178,B13

# Target: T4, Rvs167 SH3 (RV167_YEAST), P39743
# Assay: SPOT array
row,"normalised SPOT signal, Boehringer light units (BLU); mean over the file's lines of this peptide",Binder
1,248,B1
2,31.7,B2
3,73.6,B3
4,10.9,B4
5,3.1,B5
6,10.9,B6
7,57.5,B7
8,275,B8
9,100,B9
10,74.1,B10
11,1050,B11
12,73,B12
13,240,B13

# Target: Sho1 SH3 (SHO1_YEAST), P40073
# Sequence (P40073 295-366): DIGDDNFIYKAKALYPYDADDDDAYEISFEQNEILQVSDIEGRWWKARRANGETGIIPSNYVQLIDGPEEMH
# Assay: SPOT array
row,"normalised SPOT signal, Boehringer light units (BLU); mean over the file's lines of this peptide",Binder
1,62.2,B1
2,4690,B2
3,60.2,B3
4,6.3,B4
5,36.4,B5
6,62.8,B6
7,15.1,B7
8,63.1,B8
9,47.5,B9
10,46,B10
11,148,B11
12,62.6,B12
13,5160,B13

# Target: T5, Yfr024 SH3 (LSB3_YEAST), P43603
# Assay: SPOT array
row,"normalised SPOT signal, Boehringer light units (BLU); mean over the file's lines of this peptide",Binder
1,662,B1
2,594,B2
3,208,B3
4,11.5,B4
5,29.4,B5
6,1020,B6
7,178,B7
8,606,B8
9,81.6,B9
10,29.7,B10
11,1990,B11
12,1010,B12
13,180,B13

# Target: T6, Yhr016c SH3 (YSC84_YEAST), P32793
# Assay: SPOT array
row,"normalised SPOT signal, Boehringer light units (BLU); mean over the file's lines of this peptide",Binder
1,197,B1
2,47.5,B2
3,44.4,B3
4,23.3,B4
5,24.5,B5
6,152,B6
7,15.9,B7
8,41.6,B8
9,24.7,B9
10,33,B10
11,984,B11
12,342,B12
13,49.7,B13
